{
  "source": "patent US20030219853",
  "proteins": {"B1": {"name": "recombinant 6x-His-TGase fusion protein of Streptomyces mobaraensis ATCC 29032 (enzyme, UniProt P81453 77-407, looked up)", "Protein-glutamine gamma-glutamyltransferase": "DSDDRVTPPAEPLDRMPDPYRPSYGRAETVVNNYIRKWQQVYSHRDGRKQQMTEEQREWLSYGCVGVTWVNSGQYPTNRLAFASFDEDRFKNELKNGRPRSGETRAEFEGRVAKESFDEEKGFQRAREVASVMNRALENAHDESAYLDNLKKELANGNDALRNEDARSPFYSALRNTPSFKERNGGNHDPSRMKAVIYSKHFWSGQDRSSSADKRKYGDPDAFRPAPGTGLVDMSRDRNIPRSPTSPGEGFVNFDYGWFGAQTEADADKTVWTHGNHYHAPNGSLGAMHVYESKFRNWSEGYSDFDRGAYVITFIPKSWNTAPDKVKQGWP", "modifications": "N-terminal 6xHis tag"}},
  "key": {"[1]": {"target": "recombinant serum albumin (UniProt P02768)"}, "ovalbumin": {"target": "ovalbumin (UniProt P01012)", "sequence (P01012 2-386)": "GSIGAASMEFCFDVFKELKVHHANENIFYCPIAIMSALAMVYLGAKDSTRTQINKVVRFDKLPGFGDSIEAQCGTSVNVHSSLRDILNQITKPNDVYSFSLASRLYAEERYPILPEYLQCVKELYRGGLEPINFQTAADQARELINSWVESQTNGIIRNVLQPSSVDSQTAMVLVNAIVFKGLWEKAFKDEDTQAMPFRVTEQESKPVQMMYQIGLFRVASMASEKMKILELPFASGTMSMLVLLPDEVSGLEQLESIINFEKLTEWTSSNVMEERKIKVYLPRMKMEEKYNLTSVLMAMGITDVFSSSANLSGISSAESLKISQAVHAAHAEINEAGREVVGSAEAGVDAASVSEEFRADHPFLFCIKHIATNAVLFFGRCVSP"}, "β-casein": {"target": "T1, β-casein (UniProt P02666)", "T1 sequence": "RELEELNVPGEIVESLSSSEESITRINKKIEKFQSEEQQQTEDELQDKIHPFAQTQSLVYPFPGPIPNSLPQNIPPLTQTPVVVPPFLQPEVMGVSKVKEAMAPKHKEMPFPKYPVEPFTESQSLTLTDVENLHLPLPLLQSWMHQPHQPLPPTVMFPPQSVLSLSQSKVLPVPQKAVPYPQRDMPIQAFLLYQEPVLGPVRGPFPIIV"}, "[2]": {"target": "bovine serum albumin (BSA) (UniProt P02769)", "sequence (P02769 25-607)": "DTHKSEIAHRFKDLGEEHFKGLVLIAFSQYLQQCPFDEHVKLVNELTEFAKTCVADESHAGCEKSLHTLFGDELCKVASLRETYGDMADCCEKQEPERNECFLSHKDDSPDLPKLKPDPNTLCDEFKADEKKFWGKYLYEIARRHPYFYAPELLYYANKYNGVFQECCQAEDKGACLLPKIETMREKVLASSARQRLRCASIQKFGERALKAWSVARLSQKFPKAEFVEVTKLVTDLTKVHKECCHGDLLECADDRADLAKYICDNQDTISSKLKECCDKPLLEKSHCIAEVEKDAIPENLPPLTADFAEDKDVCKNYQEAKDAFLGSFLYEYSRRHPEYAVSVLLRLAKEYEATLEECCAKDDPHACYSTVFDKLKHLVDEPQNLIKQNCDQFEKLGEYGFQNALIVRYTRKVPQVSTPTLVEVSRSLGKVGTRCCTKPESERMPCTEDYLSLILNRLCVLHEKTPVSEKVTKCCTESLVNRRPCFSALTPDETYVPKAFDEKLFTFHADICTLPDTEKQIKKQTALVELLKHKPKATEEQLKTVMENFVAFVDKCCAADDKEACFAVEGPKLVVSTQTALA"}},
  "data": [
    {"protein": "B1", "values": [
      {"measurement": "cross-linking of BSA5 peptide on SDS-PAGE", "setting": "BSA5 peptide", "value": "increased amount of recombinant SM TGase corresponding to an increase in cross-linked (CL) BSA5 peptide, which run as a large molecular weight polymer on the top of the separating gel"},
      {"measurement": "cross-linking of recombinant serum albumin on SDS-PAGE", "setting": "[1]", "value": "the cross-linking reaction containing recombinant serum albumin revealed a mixture of very high molecular weight polymers of different length"},
      {"measurement": "cross-linking on SDS-PAGE, native and modified (denatured, dialyzed) protein", "setting": "histone H3 protein", "value": "only the reactions containing the modified protein species of BSA, histine H3 protein, glucose oxidase, and ovalbumin were cross-linked by the purified recombinant SM TGase; complete and partial cross-linking was both observed for native histine H3 protein"},
      {"measurement": "cross-linking on SDS-PAGE, native and modified (denatured, dialyzed) protein", "setting": "ovalbumin", "value": "only the reactions containing the modified protein species of BSA, histine H3 protein, glucose oxidase, and ovalbumin were cross-linked by the purified recombinant SM TGase"},
      {"measurement": "cross-linking of a mixture of β-casein and glucose oxidase on SDS-PAGE", "setting": "β-casein", "value": "both protein species can be cross-linked by the purified recombinant SM TGase, as indicated by the disappearance of the two monomer bands"},
      {"measurement": "cross-linking of β-casein on SDS-PAGE", "setting": "β-casein", "value": "the cross-linked (CL) β-casein migrated as a smear on the SDS-PAGE gel indicating a mixture of high molecular weight polymers of different length"},
      {"measurement": "cross-linking of β-casein on SDS-PAGE, 0 mM DTT", "setting": "β-casein", "value": "in the absence of DTT (lane 1 and 2), the recombinant SM TGase had no cross-linking activity on β-casein and β-casein runs as a monomer"},
      {"measurement": "cross-linking of β-casein on SDS-PAGE, about 2 mM DTT", "setting": "β-casein", "value": "the recombinant SM TGase was activated and β-casein run as a mixture of cross-linked polymer and monomer"},
      {"measurement": "cross-linking of β-casein on SDS-PAGE, about 10 mM DTT", "setting": "β-casein", "value": "the catalytic cross-linking activity of SM TGase resulted in cross-linking of all detectable β-casein substrates in the reaction"},
      {"measurement": "cross-linking on SDS-PAGE, native and modified (denatured, dialyzed) protein", "setting": "[2]", "value": "only the reactions containing the modified protein species of BSA, histine H3 protein, glucose oxidase, and ovalbumin were cross-linked by the purified recombinant SM TGase"}
    ]}
  ]
}
